Results taken from US20240410826A1.

Columns and labels:
[1] = target: Human colostrum IgA (Catalog No. 16-13-090701, Athens Research and Technology) (human); assay: ESM real-time charge (q) of PEG-tethered single IgA on ITO after adding anti-IgA; mean of ~60 binding events
[2] = target: Human colostrum IgA (Catalog No. 16-13-090701, Athens Research and Technology) (human); assay: ESM real-time size (DH) of PEG-tethered single IgA on ITO after adding anti-IgA; mean of ~60 binding events
[3] = target: Human colostrum IgA (Catalog No. 16-13-090701, Athens Research and Technology) (human); assay: ESM counting of landing events of IgA monomer and complex on BSA-coated ITO; binding in free solution; fit of monomer ratio decay
[4] = target: Human colostrum IgA (Catalog No. 16-13-090701, Athens Research and Technology) (human); assay: single-objective ESM digital counting; 5 nM IgA flowed over anti-IgA fixed on ITO; first-order fit
[5] = target: Human colostrum IgA (Catalog No. 16-13-090701, Athens Research and Technology) (human); assay: ESM digital single-molecule counting; 20 nM IgA flowed over anti-IgA fixed on cover glass; first-order fit
[6] = target: Human colostrum IgA (Catalog No. 16-13-090701, Athens Research and Technology) (human); assay: ESM end-point size histogram of IgA/BSA mixture tethered on ITO, before (12.1±1.2 nm) and after (13.6±2.1 nm) adding anti-IgA; ~420 molecules
[7] = target: Human colostrum IgA (Catalog No. 16-13-090701, Athens Research and Technology) (human); assay: ESM parallel kinetics; binding in free solution in a mixture of anti-IgA, IgA and IgM, 2.5 nM each; fit of IgA monomer ratio decay
[8] = target: Human colostrum IgA (Catalog No. 16-13-090701, Athens Research and Technology) (human); assay: single-objective ESM digital counting; 5 nM IgA flowed over anti-IgA fixed on ITO; KD=koff/kon
[9] = target: Human colostrum IgA (Catalog No. 16-13-090701, Athens Research and Technology) (human); assay: ESM counting of landing events on BSA-coated ITO; 5 nM anti-IgA mixed with 5 nM IgA in free solution; fraction of IgA still free in the third minute
[10] = target: Human colostrum IgA (Catalog No. 16-13-090701, Athens Research and Technology) (human); assay: ESM digital single-molecule counting; 20 nM IgA flowed over anti-IgA fixed on cover glass; KD=koff/kon
[11] = target: Human colostrum IgA (Catalog No. 16-13-090701, Athens Research and Technology) (human); assay: ESM counting of landing events on BSA-coated ITO; 5 nM anti-IgA mixed with 5 nM IgA in free solution; fraction of IgA still free in the first minute

Substance: Goat anti-human IgA (IgG, Catalog No. STAR141, BIO-RAD) (antibody)
- average charge change on antibody binding [1]: 1.8 e
- average size change on antibody binding [2]: 1.7 nm
- Kd [3]: 0.839 nM
- koff [3]: 0.00173 s⁻¹
- kon [3]: 2.18e+06 M⁻¹ s⁻¹
- koff [4]: 0.0002 s⁻¹
- kon [4]: 230000 M⁻¹ s⁻¹
- koff [5]: 9.6e-05 s⁻¹
- kon [5]: 110000 M⁻¹ s⁻¹
- shift of the IgA size peak after antibody binding [6]: 1.5 nm
- Kd [7]: 1.84 nM
- koff [7]: 0.00148 s⁻¹
- kon [7]: 881000 M⁻¹ s⁻¹
- Kd [8]: 0.87 nM
- IgA monomer ratio (third minute) [9]: 0.5
- Kd [10]: 0.873 nM
- IgA monomer ratio (first minute) [11]: 1
